Results as given in US20240294601A1.

Experiments:
[1] = target: DMF5 T cell receptor; assay: flow cytometry, tetramer titration on Jurkat T-cells transduced with DMF5
[2] = target: DMF5 T cell receptor; assay: flow cytometry, barcoded tetramer library on Jurkat/MA cells transduced with DMF5

- fold improvement in EC50 relative to photo-exchanged tetramers [1]: 2.6 fold
- percent of cells stained [2]: 33%
Substance: MART-1/HLA-A*02:01 tetramer (from UniProt P61769 21-119) (peptide-MHC)
